Assay in all cases: AUC; sedimentation velocity, 40,000 rpm, 25°C, 2 mg/ml, 10 mM Tris, ~pH 7.0; c(s) model (SEDFIT)
Test [1] deals with Amel-C (amelogenin C-terminal fragment, AA 86-180) (mouse).
Test [2] deals with full-length recombinant mouse amelogenin (M180) (mouse).
Test [3] has the same target. The source holds these as a separate data set.

Where “and” joins values, the source holds several entries; their conditions need not be identical. Equal values may be shown once. Read-outs that look alike come from different tables or passages of the source.

A word on the stoichiometry N: it is the number of molecules, sites or subunits per partner or assembly. As to “Amel-C (amelogenin C-terminal fragment, AA 86-180) (domain or fragment)”, in test [1], the percent as larger aggregations was 2%; the percent as tetramers was determined as 7.5%; the stoichiometry N is 4 and 6.

Regarding “full-length recombinant mouse amelogenin (M180) (natural protein)”, the stoichiometry N in test [2] is 50; in test [3] it was 40.

The values above are taken from PMC3184955.
